Target: T1, recombinant mouse LRP6-His chimera (mouse, UniProt O88572 20-1370)
T1 construct: extracellular domain; also called ECD of mouse LRP6; not shown: His tag
T1 sequence (looked up): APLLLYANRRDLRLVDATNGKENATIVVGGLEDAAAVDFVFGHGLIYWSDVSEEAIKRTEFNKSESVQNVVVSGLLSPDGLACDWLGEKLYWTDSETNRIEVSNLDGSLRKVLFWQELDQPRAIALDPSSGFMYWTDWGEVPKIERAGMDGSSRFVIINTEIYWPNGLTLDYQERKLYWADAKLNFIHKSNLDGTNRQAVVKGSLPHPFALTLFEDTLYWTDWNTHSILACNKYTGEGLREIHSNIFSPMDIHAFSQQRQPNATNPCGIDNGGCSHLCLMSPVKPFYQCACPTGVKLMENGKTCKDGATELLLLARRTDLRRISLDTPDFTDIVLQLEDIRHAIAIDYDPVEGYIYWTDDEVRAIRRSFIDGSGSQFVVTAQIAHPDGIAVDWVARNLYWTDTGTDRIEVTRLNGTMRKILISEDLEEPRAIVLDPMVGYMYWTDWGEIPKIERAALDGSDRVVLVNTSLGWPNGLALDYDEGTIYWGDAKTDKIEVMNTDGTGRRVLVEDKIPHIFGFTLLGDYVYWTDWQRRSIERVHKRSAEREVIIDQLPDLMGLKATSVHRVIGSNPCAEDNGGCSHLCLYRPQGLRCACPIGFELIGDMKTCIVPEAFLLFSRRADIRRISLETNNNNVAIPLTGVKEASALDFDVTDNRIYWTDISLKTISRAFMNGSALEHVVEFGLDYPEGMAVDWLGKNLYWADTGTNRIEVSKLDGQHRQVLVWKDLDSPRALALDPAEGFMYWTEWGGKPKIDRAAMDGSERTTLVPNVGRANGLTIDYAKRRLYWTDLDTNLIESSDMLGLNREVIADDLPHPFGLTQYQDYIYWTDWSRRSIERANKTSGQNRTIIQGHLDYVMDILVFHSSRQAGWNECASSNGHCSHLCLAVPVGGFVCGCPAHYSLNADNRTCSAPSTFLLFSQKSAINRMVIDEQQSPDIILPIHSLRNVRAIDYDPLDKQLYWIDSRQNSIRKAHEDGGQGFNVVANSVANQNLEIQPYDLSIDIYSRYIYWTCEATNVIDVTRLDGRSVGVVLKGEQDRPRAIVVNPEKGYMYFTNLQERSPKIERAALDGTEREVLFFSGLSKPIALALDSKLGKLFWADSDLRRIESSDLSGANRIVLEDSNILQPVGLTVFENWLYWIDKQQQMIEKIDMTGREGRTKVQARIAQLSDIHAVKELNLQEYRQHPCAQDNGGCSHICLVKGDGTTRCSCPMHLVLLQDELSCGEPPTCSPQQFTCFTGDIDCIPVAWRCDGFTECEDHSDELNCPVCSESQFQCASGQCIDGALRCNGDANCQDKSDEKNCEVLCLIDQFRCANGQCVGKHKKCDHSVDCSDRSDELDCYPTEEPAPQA
Experiment: single-point ELISA, coated antigen, purified Fab or IgG1, anti-kappa-HRP

B1: LRP5-H5 (antibody, V domains shown)
VH: EVQLVESGGGLVQPGGSLRLSCAASGFNLSYSSIHWVRQAPGKGLEWVASISSSYGSTSYADSVKGRFTISADTSKNTAYLQMNSLRAEDTAVYYCARGYWAIDYWGQGTLVTVSS
VL: DIQMTQSPSSLSASVGDRVTITCRASQSVSSAVAWYQQKPGKAPKLLIYSASSLYSGVPSRFSGSRSGTDFTLTISSLQPEDFATYYCQQPVGHYGYPITFGQGTKVEIKR
notes: Fab-phage in the screen
B1: binds.

From patent publication US20230183336A1 (MODMAB THERAPEUTICS, published 2023)
